This data set addresses IMP1 KH34 Y396F (Gallus gallus) (UniProt O42254). The data set is described as follows: BLI. The following applies: N6-methyladenosine at position 6; BLI: 10 mM Na2HPO4 pH 6.5, 50 mM NaCl, 1 mM TCEP, 2 mg/ml BSA, 0.005% Tween-20, 25 C; NMR: 80 uM protein, 37 C, NMR buffer not printed (protein in 10 mM …).

1 substance from PMC10484666 can be followed below.

Broadly, the Kd is the equilibrium constant for the complex coming apart. Read a low Kd as higher affinity.

IMP1 KH34 Y396F (Gallus gallus), sequence (O42254 387-573 Y396F): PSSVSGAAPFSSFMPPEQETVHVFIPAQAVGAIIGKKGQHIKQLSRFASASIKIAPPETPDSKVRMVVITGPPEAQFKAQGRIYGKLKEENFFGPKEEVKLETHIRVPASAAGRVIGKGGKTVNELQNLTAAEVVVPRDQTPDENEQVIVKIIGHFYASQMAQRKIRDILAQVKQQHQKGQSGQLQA

Take ACTB zipcode RNA, m6A: the Kd was 3.7 nM.
